The values that follow come from patent US20030219899A1.

Test in all cases: cell-based or functional assay
Assay [1] has as its target human coxsackie-adenovirus receptor (hCAR) (human) (UniProt P78310).
The target in assay [2] is hCAR-tailless, truncation mutant of human CAR lacking the cytoplasmic domain (human) (UniProt P78310).
The target of assay [3] is Ad3 receptor.

Bounds are passed on as bounds.

“Ad5 wild-type fiber, as displayed on Ad5luc1 (from UniProt P11818 1-581)”: the Ad5luc1 luciferase activity (normalized to Ad5/3luc1) in U118-hCAR cells against parental U118 cells in assay [1] was 11 fold. For the same substance, the Ad5luc1 luciferase activity (normalized to Ad5/3luc1) in U118-hCAR-tailless cells against parental U118 cells in assay [2] turned out to be 16 fold.
For the substance “mosaic adenovirus AdMSluc1 displaying both the Ad5 wild-type fiber and the Ad5/3 chimeric fiber on the same virion (from UniProt P11818 1-581; P11818 1-399; P04501 132-319)”, in assay [1], the AdMSluc1 luciferase activity (normalized to Ad5/3luc1) in U118-hCAR cells against parental U118 cells was 6 fold and the luciferase gene transfer of AdMSluc1 to C33A cells in the presence of purified Ad5 knob; lowest knob concentration with significant block was determined as 0.1 µg/mL. Also, the luciferase gene transfer of AdMSluc1 to C33A cells in the presence of purified Ad3 knob in assay [3] was found to be 100 µg/mL. The AdMSluc1 luciferase activity (normalized to Ad5/3luc1) in U118-hCAR-tailless cells against parental U118 cells in assay [2] was 7.5 fold.
“recombinant Ad3 fiber knob protein with N-terminal 6xHis tag expressed in E. coli (from UniProt P04501 119-319)” returned a luciferase activity of Ad5/3luc1 on HeLa cells with 100 µg/ml Ad3 knob, against that without knob protein (% of activity without knob protein) in assay [3] of less than 5.
In assay [1], “recombinant Ad5 fiber knob protein with N-terminal 6xHis tag expressed in E. coli (from UniProt P11818 387-581)” registered a luciferase activity of Ad5luc1 on HeLa cells with 100 µg/ml Ad5 knob, against that without knob protein (% of activity without knob protein) of less than 5.
